# Test: soluble on expression in E. coli; label from the status in PepcDB or PDB records
row,Sequence,soluble on expression in E. coli
1,MSLVLDKLLYTGYNRLIDLGWRRSGHYLYKPNGKTSCCSLYTIRLDSYNFKIAKEQKKAIKKWVKYVNGKPLKPMKSEISTDYLNNAFQTIESLGAEKYSVTMEPCTYTDEKFEVFKKYQMQVHLEKEEEITKKGFSRFLCNSPLFNEDKGIKYGSYHQMYRFQGRLVAVGVLDLLPHGVSSVYLFYDPDMSKFSLGRISACREIWLALECGYRYYYMGYYIHTCPKMKYKATYSPSYLLNPGTNKWIPIENFTSLWNTGAPKYISFGDENNSDIQTAVDYDSSEDSSQNEDDYTLFNRQLPGILSVNVAESLVSENFANIGNSTFPTRHVLSYFPQVKHWFVEINAAVGEEVAKSYTLVLSSEGHHHHHH,not soluble
2,MIKGGGGKSSGYSADLMVCFPSRAHLSLPSKSISSPSSSFNRRQNAPHHRRSISKLSSSGGGVRQNRGGGREVVEEPTSPKVTCAGQIKVRSSKRDGGGKNWQSLMAEIEKIHRSKSESKFFGIKRDVMGFLTCLRDFDFRCFGAFPPVDIISDDEEEDEEEEEEDEEEDEDESSGTVFSKWLMVLHEKQNNEECVDGKENVFSDVETAVPPPNALLLMRCRSAPVKNWSEEKKEETEEGDNRVKQSGEEEEEEKDRVGNKKDLRSLMEEEKKMNLVVMNYDTNYYKLSNDIAKETWVVGGIQDPLFRSRSWKK,not soluble
3,REGKASTVNPGNGNVPDAEDLQALFDVIYEVMPEPTVNVDGPLQAHVTNLDSSSFLGRIGLIRVHSGSLKKGQQVAWIHYDEEGNQHTKTAKIAELLRTVGVTRVPADEVVAGDIAAISGIDSIMIGDTLADLEHPVALPRITVDEPAISMTIGVNTSPLAGRGGGDKLTARVVKARLEQELIGNVSLRVLPTERPDAWEVQGRGEMALSVLVETMRREGFELTVGKPQVVTQTVDGKLFEPYEHMVIDIPSEYQGNVTQLMAARKGQMLSMDNISDEWVRMEYKVPARGLISFRTMFMTETRGTGIANSYSEGLDEWAGEIKGRATGSLVADRSGQITAYALQQLADRGNFFVEPGTEAYEGMVVGANNRDEDMDVNITREKKLTNMRSATADATVTLAKARSLSLDEAMEFCGQDECVEVTPDVLRVRKVILNATERGRARAREKARNK,not soluble
4,MSDPAGGKALRRDAAENRQRLLDAAATVFSARGLDVGVDEIARVAGVGIGTLYRRFPTKDALISELVRQVLEDFLTLAHEALSAPEGEGLEQVLYGSGAILASNRGCLSRMWNDDQTTVLRNEYRRILFELLAGAKQHGRIREDATEADLDLIFWSLRGVVATTRGVTDTGWRRILAVMIAGLRPGAERLDAAPLSAQDVAQIMENLWPR,not soluble
5,MSLKYLVMNAGRLFLSLLKESGVNKIFIVSGTDYASLIEAKVEDSSLPEFEIVPHEITAISTAIGYALGNKLSAVAVHTTPGTANALGGIMSAFTSRIPLLVIAGRSPYTEKGNTASRNLRIHWTQEARDQGELVRQYVKYDFEIRMADQLPAVVSRAIQIMMSEPRGPVYIVLPREVSIQEVNEARRIPMDYYEPAPSPDKINKAKEMLEKSERPLIITWRAGRRKEWFESLRRFADNYNIPVLNYAGEVLNYPSSGPMALDRFDLRNSDLLLVVEAEVPYFPKKIDLDIPIVKIDVDPSYSYIPYYGFRCDLCIQSTPSNFFDYISIRPKSYDEIKELRAKQEEYKKQEIERLKDKKPIHPKYLSYEIGIVASEYNLVIFNEYQFNPRYARLNEFGSYFADLSVGYLGFALGAGVGYKIATNKDVLITTGDGSFIFGVPEAFYYVASKYPTMVVIYDNGGWLASAEAVDEVFPEGLAKSKKYYPGADFDRRFEIGKTVETFHGYYELVEDPWEIKPALIRGLEKMRRENKIAVIQVIVDKVREGHHHHHH,not soluble
6,MSLAFDTLFLNARFDGGTRHHIAVKDGRIAAITSVDQPPAGAETIDLKDALVVPGFVEGHIHLDTSFYGDAWRPHKPCADGFNVHERVAFQAQNMAEAAPMDVRARNQLDLCIGHGTTQMRSHVIVDGSVGLKSLETILRVREEYNGLIDIQLVAFPQSGILSSPGTAQLLDEAIGLGANLVGGLDPASFDRDVEKHLDVVFGVANKHGVDIDIHLHDMGTLGAFEIEQIAARTRALGMEGRVAVSHAYGLGDIPADYLKKVAEILARSGVAIMTNAPGARPFPPILALRNAGVTVFSGNDNIRDSWWPYGDGDMLRRATTLGYRSGFNIDEELRAAFDVVTASGAKALRLEGYGLRIGAKADFVALNAEHVPEAVVAVPQGRSVYKDGRLVAANGRIVGKSGEGHHHHHH,not soluble
7,MSLKNIVFDFGGVIVDIDRDKAVQAFIKLGLADADTRLDKYHQTGIFQELEEGKLSADEFRKQLGDLCGRELTMEETKQAWLGFFNEVDLRKLDYILGLRKSYHVYLLSNTNPFVMSWACSPEFSSEGKPLNDYCDKLYLSYQLGHTKPAPEIFDFMIKDSHVIPSETLFVDDGSSNIHIGKELGFETFQPENGADWRQELTVILNSEGHHHHHH,soluble
8,MATSSHLNWLIIRNNNAFLLKKRDVKKPFSTEPNNLASVSSYRYSGIVHKKTLGVVPAADKKGFTAVLKKGKYAQRPAKNTVRVDFKAGPRRSLKKLKNLLIGSKYRKDLTQAALRRASAVLRSQKPAPVKGKKAEFAKGKKPELEHHHHHH,not soluble
9,MGSSHHHHHHSSGLVPRGSTKVKYVDKIHIGNYEIDAWYFSPFPEDYGKQPKLWLCEYCLKYMKYEKSYRFHLGQCQWRQPPGKEIYRKSNISVHEVDGKDHKIYCQNLCLLAKLFLDHKTLYFDVEPFVFYILTEVDRQGAHIVGYFSKEKESPDGNNVACILTLPPYQRRGYGKFLIAFSYELSKLESTVGSPEKPLSDLGKLSYRSYWSWVLLENLRDFRGTLSIKDLSQMTSITQNDIISTLQSLNMVKYWKGQHVICVTPKLVEEHLKSAQYKKPPITVDSVCLKWAPPK,soluble
10,MGSDKIHHHHHHMDIEDLRTFVAVADAGGVSAAARRLGISKSIVSRRLFRIEAELGVQLLARTTRGAALTEAGITFRDHAARASAEIDTARETILPAGELHGRLRIAMPLTFGPTHFAPVLAEMARQHPQLHIHTSYSDRFVDLIAEGFDCAIRGAYLQDSNLIAKRVGPIHGKLVASPAYIKAHGSPEMVEQLVNHQALMQGTEAWQFMDGDRIVTVQPQGKFKADSATALAAAAAAGLGIAWLPDCITHAYLASGALVPIMTRYPVPPGAVYVVRPPSQHPARKVRVLTEMLTEYFKRTPELWGVDG,not soluble
11,MDYNKTAKDILKLLGGEKNVMSAAHCATRLRLVLKNEKEARTKEIEKLDGVKGVFSSSGQYQIIIGQGSVNKVYKAFVEGTGISESSLSDTKKAAMKNM,not soluble
12,MGSDKIHHHHHHMPARPNHLSNNIVFRDGVQVMRMDLHVHTEVSHDCQTRLRDIPAWLLRTNTRVIAITDHDEQRGGPELKRLVADLGLADRLSIIPGEEITTSEGELIGLFLEERIPPGLTPEATVQEIKAQGGLVLLQHGFDPLKRYRLRPEATQRIADQIDMVETFNSRLSRHHWNRVAAEWARARHLPVCAGSDAHTLRDIGEAWVETPFRLIHTPEQLLQALDEGVVGGRWTHPVYAYGLKQWRNLNGRFQRKD,not soluble
13,MKDNLKEARRYLNNAKEMLSQKAKKEGKFYQDKKYIRLAGHAAYSGVLIALDNVLGNKDSGRKSVDWYKSELAKLDKKALTAFNGAYETLHLAMSYDGNIVANVSKSGIELADSIITWAETRTAAA,not soluble
14,EVQLQQSGAELARPGASVKMSCKASGYTFTSYTMHWVKQRPGQGLEWIGYINPSSGYSNYNQKFKDKATLTADKSSSTAYMQLSSLTSEDSAVYYCSRPVVRLGYNFDYWGQGSTLTVSSAKTTPPSVYPLAPGSAAQTNSMVTLGCLVKGYFPEPVTVTWNSGSLSSGVHTFPAVLQSDLYTLSSSVTVPSSTWPSETVTCNVAHPASSTKVDKKIVP,soluble
15,MSLNYEGRVLVVDDVNDIRMLVGHMVQNSGLKVEYGRNGLEALDKVTDAINDGDPYDLVLIDIHMPVMNGSEAIKQIRSSGIHFPVVAMTAATMKGVRDQLISQGFTNVLEKPINHDALLKVLDAHLTAVSEPIQVETTDAHDNDASQQDESSERQHFLLVEDDVDAADITALLLESLGIDVHVAHSGQECMDVFNQRNDWSKVLMDLNLPDASGLNLAKEIHKTSPQLELVLLSGEEPDAQSMADADITKFILKPINKKVLSDLVEEGHHHHHH,soluble
16,MAHHHHHHMNPMDALIARAAAEERQQAKMKQKSTRVSGESDLDHPSPSAAFPDSVISRGERASILCYVDPAATTTSSNFSVRRLRTFSACPTFKGGMIMRLTMCHDAQHLTVAFESGHIVLARYRDADVIDMADEPGEVCHAGGSMSVARVRNVTRAFADSALACWWSGRRMLACSSEGGMHCYDVSATAEGLLEAHLVWSVTLRKGIGSVFLQRNLVVAGCWDSTLRLYDARDGRLVSILSYQRETINEVRAAPPSIARVAAFGFDVRQPRLYAGQPGALSTKIPACIASNSKAVTQGNLPQFSESPLRETYVAGTPTPHSSSGSLAAEEQLVYLFASASKACTVALWRVDLGLVVEQTAREAIAAQTV,not soluble
17,MSLDLFSWAAAQQAAQSAPLAARMRPQTLDEFVGQEHLVGPGRFLRRALEAGHLPSCILFGPPGTGKTTLARLMASNVNAHFEQLNAVTSGVQDIRRIVDEARARLAERGQKTVVFIDEIHRWRKDQQDALLPHVEDGLITLVGATTQNPLVSVNAPLVSRTRIFELKPLSDEHIAHLLDRALRTPGRGLGNYNATVTPEAMEHLVRMAGGDARAALNALELAVLLTQPDEQGRRTVTLETAEEALLKRAVVYDHDGDEHYHVASALIKSIRGSDPDAALYWLARMLYAGEDPRFIARRLVISAAEDIGLADPQALVIAQAAADAVSFIGMPEGRIPLAEAVVYLACAPKSNSAYLAIDRALAVVEREKTPPVPNHLKDTGYGSDQRLGYGKGYQYPHDFPGAWVEQRYLPEGVDGPFWEPKGYGREAELARLLRERRGREGHHHHHH,not soluble
18,MTDNTLTPQMLTGLSTDHLVVLSGAHRLQPQAAEAFQAMQQAAKVAGFDLQPASTFRDFGRQLAIWNGKFRGERPVLDQDSQPIDIFSLDTAARCEAILRWSALPGTSRHHWGSDLDIYDPSRLPTGEKLQLEPWEYDAGGYFYPLTQWLSAHMAEFGFYRPFATDNGGVAVEPWHLSYRPLAEQAEHLLTPKILLAAWQSQDVAGSEWLASHLPMIFSRFIYLK,not soluble
19,SLRYSKLTMLIPCALLLSACTTVTPAYKDNGTRSGPCVEGGPDNVAQQFYDYRILHRSNDITALRPYLSDKLATLLSDASRDNNHRELLTNDPFSSRTTLPDSAHVASASTIPNRDARNIPLRVDLKQGDQGWQDEVLMIQEGQCWVIDDVRYLGGSVHATAGTLRQSIENR,not soluble
20,AHHHHHHASAKWVCKICGYIYDEDAGDPDNGISPGTKFEELPDDWVCPICGAPKSEFEKLEDGSACYSSSPEVIVLREYLLIKIHEDGVIKIPQELAYEVGLVKGAYFLVEIDTDIKELHVERVALPGKKLVEIELVVEDKPGVLAKIAGILGKNGINILFNEAEELESLGLSAIVAVVDVSGAKISLKDLESTLKEINEVKEVKIVEIE,soluble
21,MGSDKIHHHHHHMSETYPILIHLGEKLNRVIVGQSQLIQQLLVGLLSGGHIILEGVPGTGKTLLVKVLARLIQADFHRVQLTPDVLPSDITGTNIFDLNNRNFTLKKGPVFTEVLLADEINRTPPKTQAALLEAMEEMQVTLDGESLPLPDLFWVIATQNPLEFEGTYPLPEAQLDRFLFKLVVDYPDQTAEKQMLLNRQAGFAARRSDINSLQPIATVTDILEARQAVKAVKVSESIIDYLLALVRTSRQYPDLALGASPRAAGAWLQTSQAVAWLEGRDFVTPDDIKAVASPLLRHRLILKPEAMLDGLQIDAVIAAVVNQVAVPR,not soluble
22,MVVMSKVLLNIGCADVDKPGYINVDARKTKVTHLVSNAWDLDCFEENSVHEIYSRHMLEHLNPEYAKLALQKWFYILEPEGKLVVIVPDIEFHARQLLGVSRSSFGDQMEHAFAGFWGWREKERGGSDFDAHQWGYTVATLENEIGAVGFERIERVVEGVDSEPWHLQMTARKPMTSLCCPMDFRGPFPLEHHHHHH,soluble

# Reference: the DeepSol protein solubility set
